In the data set the test system is ACE-2 inhibitor peptide (the most active ACE-2 inhibitor peptide, Example 9).

For Angiotensin converting enzyme (ACE), the “hydrolysis of the substrate, hip his-leu (250 mM) by ACE (1.5 nM)” value is on record as “the inhibitor did not affect the hydrolysis of the substrate, hip his-leu (250 mM) by ACE (1.5 nM), even at 25 mM”.

As to recombinant human-ACE-2, the “conversion of angiotensin I to A1-9 by ACE-2” value is “This peptide also inhibited conversion of angiotensin I to A1-9 by ACE-2”.

These data come from patent publication US20030138894.
